In data set [1] the test system is MS2 coat protein. Description: apparent KD of MS2 coat protein, switch ON state; designed switch direction (-1 OFF switch, 1 ON switch): -1; higher = weaker reporter binding. The conditions noted are these: FMN input: 0 or 200 uM; Eterna round: R93 (includes R88 designs). The gist of the method: (§1)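 SNAP-549-labelled MS2 coat protein was titrated onto designed RNA switches that had been transcribed on-chip from Illumina sequencing clusters. Amounts doubled from 0.7 or 1.5 nM to 3 µM in 100 mM Tris-HCl pH 7.5, 80 mM KCl, 4 mM MgCl2, with constant ligand or without. Apparent KD is the median per design of normalised cluster binding-curve fits.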

In data set [2] the test system is MS2 coat protein. The experiment in a line: apparent KD of MS2 coat protein, switch OFF state (with FMN for OFF switches, without FMN for ON switches); designed switch direction (-1 OFF switch, 1 ON switch): -1; higher = weaker reporter binding. The note with it: FMN input: 0 or 200 uM; Eterna round: R93 (includes R88 designs). The gist of the method:
as §1

For “AAUAACUCAGGAUAUACUAAAGAAAUGAAAAGAAAUAAAGAACAUGAGGAUCACCCAUGUAGAAGGGAGAAUAA [Wazad]”, the “apparent KD of MS2 coat protein” value with MS2 coat protein [1] came out at 0.0942 µM; in the data set on MS2 coat protein [2], 0.0551 µM.

For “AAAUUAGGAGGAUAUACAUGAGGAUCACCCAUGUGACGAUGUUACUGCAUGAAGUCAAGUAGAAGGUCUAAGAA [Cearar]”, the “apparent KD of MS2 coat protein” value in the data set with MS2 coat protein [1] turned out to be 0.0317 µM; in the data set with MS2 coat protein [2] it was 0.0442 µM.

For “CUCUAGUCAGGAUAUGCAUGAAAUGAAGUGAAAGAAAAGAAGCAGAAGGGACAUGAGGAUCACCCAUGUUAGAA [EteRNA is fun!]”, the figures for the “apparent KD of MS2 coat protein” value in the data set on MS2 coat protein [1] and with MS2 coat protein [2] were 0.0296 µM and 0.0383 µM, respectively.

In the case of “AAAGAUGGAGGAUAUACAUGAGGAUCACCCAUGUAAAAAAAAAAGAGGGAAAAAGAAAGUAGAAGGCCACAAAA [Ex 3 May 44]”, the “apparent KD of MS2 coat protein” value worked out at 0.0831 µM with MS2 coat protein [1] and 0.0464 µM with MS2 coat protein [2].

Regarding “AAAUAGUUAGGAUAUACAUGAGGAUCACCCAUGUGGACUUAUGGAGAAUAAUUUAAUGGUAGAAGGGACUAAAA [EX2 Malc#26]”, the “apparent KD of MS2 coat protein” value with MS2 coat protein [1] is 0.0543 µM; in the data set on MS2 coat protein [2], 0.0455 µM.

As for “GCUUGUGAAGGAUAUACAUGAGGAUCACCCAUGUGAGAGAAAAAAGUGAGAAAGAAAAGUAGAAGGUCGUGAGG [salish99-ex3-79]”, the “apparent KD of MS2 coat protein” value in the data set with MS2 coat protein [1] came out at 0.0361 µM; in the data set with MS2 coat protein [2], 0.037 µM.

For “AACAGUACAGGAUAUACAUGAGGAUCACCCAUGUGAGCAUUAAAAGGCGUACCUAAAAGUAGAAGGGUACUGGA [JL Maslow Revisted mod 22]”, the entries for the “apparent KD of MS2 coat protein” value in the data set on MS2 coat protein [1] and with MS2 coat protein [2] were 0.0248 µM and 0.0667 µM, respectively.

Regarding “AUAAACAGAGGAUAUACGCGGAUUAUUGAAAUUAUUGAUUCACAUGAGGAUCACCCAUGUAGAAGGCUGGAAAA [LROPPY Exclusion 2 - v04_doubled Us]”, the entries for the “apparent KD of MS2 coat protein” value with MS2 coat protein [1] and with MS2 coat protein [2] were 0.0357 µM and 0.124 µM, respectively.

For “AGAGGACAUGAGGAUCACCCAUGUGAGGAUAUGCACAACUAAGGACAAGAUCGCUAUAGCAGAAGGCACGUACU [JR_EXc001_Sub809]”, the “apparent KD of MS2 coat protein” value with MS2 coat protein [1] turned out to be 0.0393 µM; in the data set with MS2 coat protein [2], 0.0338 µM.

“AGGCAGACAGGAUAUACUUGGGCAGCCAGUAUGGUAAUAUAACAUGAGGAUCACCCAUGUAGAAGGGUCAGAAA [JR_Exc002_Sub210]”: the “apparent KD of MS2 coat protein” value was determined as 0.0943 µM in the data set on MS2 coat protein [1] and 0.0884 µM with MS2 coat protein [2].

Consider “AGUGAGUCAGGAUAUUAGUGAAGAAUAAAAGAAAUAACAACUAAGAAGGGACAUGAGGAUCACCCAUGUACACA [May 58]”, for which the entries for the “apparent KD of MS2 coat protein” value in the data set on MS2 coat protein [1] and in the data set on MS2 coat protein [2] were 0.026 µM and 0.0209 µM, respectively.

For “CAGUACUGAGGAUAUACAUGAGGAUCACCCAUGUGAAAAAGCUACGAAAGUAGCAAAUGUAGAAGGCAGUACUG [Ex3: 806]”, the “apparent KD of MS2 coat protein” value was 0.0289 µM in the data set on MS2 coat protein [1] and 0.273 µM with MS2 coat protein [2].

Take “AACAUACAUGAGGAUCACCCAUGUCAGGAUAUGCCGGGUUAGAGCCAACUGAAAAAACGUAGAAGGGACGAAAA [Bilbo Confounded 7 - Jieux - Exclusion 1]”: the “apparent KD of MS2 coat protein” value with MS2 coat protein [1] was 0.11 µM; in the data set with MS2 coat protein [2] it was 0.0903 µM.

Take “AAGAAGUGAGGAUAUCGUGCUCGUCACAAAAGUGAUGAGUACGAGAAGGCACAUGAGGAUCACCCAUGUAAAGA [Opal 36]”: the “apparent KD of MS2 coat protein” value was 0.0401 µM in the data set on MS2 coat protein [1] and 0.0526 µM with MS2 coat protein [2].

As to “AAAACGCUAGGAUAUACGAAAAAAAAGGGAGAAAAAAAGGGACAUGAGGAUCACCCAUGUAGAAGGAGCAAAAA [Diamond 88]”, the “apparent KD of MS2 coat protein” value is 0.0385 µM in the data set on MS2 coat protein [1] and 0.105 µM in the data set on MS2 coat protein [2].

For the sequence “UUUUGACAUGAGGAUCACCCAUGUCAGGAUAUAGUAAGAAAAAAAAAAAAAAAAACUACUAGAAGGGAUAUGGA [Amethyst 51]”, the “apparent KD of MS2 coat protein” value was 0.0245 µM in the data set with MS2 coat protein [1] and 0.0254 µM in the data set on MS2 coat protein [2].

With “ACGUACUGAGGAUAUACGAACAUGUCAAAAGACGUGAAGGGACAUGAGGAUCACCCAUGUAGAAGGCAGUACGA [Mat - Exclusion 2 - JL mod - D7]”, the “apparent KD of MS2 coat protein” value is 0.0607 µM in the data set with MS2 coat protein [1] and 0.172 µM with MS2 coat protein [2].

As to “GGGAAACAUGAGGAUCACCCAUGUGAGGAUAUGCUAUGGAAAAUAAAAAUAAAACAUAGCAGAAGGCAUAAAAA [Denovo 11]”, the “apparent KD of MS2 coat protein” value came to 0.0306 µM in the data set on MS2 coat protein [1] and 0.037 µM in the data set on MS2 coat protein [2].

Turning to “AUAUAACAUGAGGAUCACCCAUGUCAGGAUAUCGAACCCAACACAACCAAAAUGUCGGCGAGAAGGGACAAAAA [Default title]”, the “apparent KD of MS2 coat protein” value in the data set on MS2 coat protein [1] is 0.0275 µM; in the data set on MS2 coat protein [2] it was 0.0226 µM.

As for “GAAAAGUCAGGAUAUGCAGAUAAAAAAACGAAAAAAAAUCUGCAGAAGGGACAUGAGGAUCACCCAUGUAAAAA [Mat - Exclusion 4 - Mayanna - D109]”, the “apparent KD of MS2 coat protein” value in the data set on MS2 coat protein [1] amounted to 0.0456 µM; in the data set with MS2 coat protein [2], 0.0457 µM.

These data come from the supplement of paper PMC9170038.
